Test results: patent publication US20020137677A1

Experiments:
Assay in all cases: cell-based or functional assay
[1] = target: human zalpha11 Ligand (human) (UniProt Q9HBE4)
[2] = target: human zalpha11 receptor, full-length, on cells (human) (UniProt Q9HBE5)
[3] = target: mouse zalpha11 receptor, on cells (mouse)

Chain of UniProt Q9HBE4 (Q9HBE4 32-162 limits assumed, form in doubt): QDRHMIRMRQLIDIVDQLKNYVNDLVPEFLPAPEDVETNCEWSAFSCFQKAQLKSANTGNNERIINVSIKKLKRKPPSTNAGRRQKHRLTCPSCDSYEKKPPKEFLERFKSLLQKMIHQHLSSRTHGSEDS
Chain of UniProt Q9HBE5 (Q9HBE5 20-538 limits assumed): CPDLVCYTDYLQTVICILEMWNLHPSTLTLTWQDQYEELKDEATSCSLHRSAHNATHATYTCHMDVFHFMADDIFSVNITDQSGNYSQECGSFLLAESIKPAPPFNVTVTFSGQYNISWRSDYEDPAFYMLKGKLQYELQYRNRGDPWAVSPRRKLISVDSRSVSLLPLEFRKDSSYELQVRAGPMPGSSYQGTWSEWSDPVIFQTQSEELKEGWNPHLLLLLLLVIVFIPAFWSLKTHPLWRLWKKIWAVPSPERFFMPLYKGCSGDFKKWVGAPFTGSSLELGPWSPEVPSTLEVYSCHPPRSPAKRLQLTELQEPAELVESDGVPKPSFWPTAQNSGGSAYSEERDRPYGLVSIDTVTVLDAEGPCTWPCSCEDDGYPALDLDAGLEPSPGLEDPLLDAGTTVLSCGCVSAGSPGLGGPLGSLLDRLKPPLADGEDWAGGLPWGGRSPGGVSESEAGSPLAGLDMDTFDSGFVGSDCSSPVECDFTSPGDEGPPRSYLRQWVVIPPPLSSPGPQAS

inhibition of BaF3/zalpha11 proliferation (Alamar Blue), concentration completely inhibiting 3 ng/ml human zalpha11 Ligand [1] | potency in inhibiting human zalpha11 Ligand relative to the homodimeric soluble zalpha11 receptor (zalpha11-Fc4) [1] | STAT luciferase reporter response of BaF3/KZ134/Zalpha11 cells (fold over media-only control) [2] | proliferation of BaF3/Zalpha11 cells (Alamar Blue) (fold over background) [2] | STAT luciferase reporter response of untransfected BaF3/KZ134 control cells [3] | Substance
0.312 µg/mL | 30 to 100 fold |  |  |  | soluble human zalpha11 receptor/human IL-2Rγ receptor heterodimer (hzalpha11/IgGγ1 + hIL-2Rγ/human κ light chain) (Fc fusion)
 |  | 40 | 5 | 5 fold | mouse zalpha11 Ligand
